Laboratory results from patent publication US20200247856A1.

Tests used:
[1] = target: T1, Myostatin (R&D Systems, Catalogue number 788-G8-010/CF) (UniProt O14793); experiment: BIAcore SPR; fusion captured on anti-human Fc; myostatin as analyte (5-0.31 nM)
T1 sequence (looked up): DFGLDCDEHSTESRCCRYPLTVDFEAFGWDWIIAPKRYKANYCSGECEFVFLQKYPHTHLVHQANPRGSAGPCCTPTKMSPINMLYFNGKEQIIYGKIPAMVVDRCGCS

FcRn receptor = experiment: FcRn binding, 'standard methods'
[2] = target: T1, Myostatin (R&D Systems, Catalogue number 788-G8-010/CF); experiment: cell-based or functional assay
[3] = target: Activin A (R&D Systems, Catalog number 338-AC-050 CF) (UniProt P08476); experiment: cell-based or functional assay
Activin A (R&D Systems, Catalog number 338-AC-050 CF), sequence (P08476 311-426): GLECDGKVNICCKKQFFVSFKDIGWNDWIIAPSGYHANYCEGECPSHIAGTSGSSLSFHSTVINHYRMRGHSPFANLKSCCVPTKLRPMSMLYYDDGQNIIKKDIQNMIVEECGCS

[4] = target: Fc Gamma Receptor RIA (R&D Systems, Catalog #1257-FC-050) (UniProt P12314); experiment: SPR; fusion immobilised on CM5 chip; Fc gamma receptor IA as analyte (62.5-0.49 nM)
Fc Gamma Receptor RIA (R&D Systems, Catalog #1257-FC-050), sequence (P12314 16-288 limits assumed): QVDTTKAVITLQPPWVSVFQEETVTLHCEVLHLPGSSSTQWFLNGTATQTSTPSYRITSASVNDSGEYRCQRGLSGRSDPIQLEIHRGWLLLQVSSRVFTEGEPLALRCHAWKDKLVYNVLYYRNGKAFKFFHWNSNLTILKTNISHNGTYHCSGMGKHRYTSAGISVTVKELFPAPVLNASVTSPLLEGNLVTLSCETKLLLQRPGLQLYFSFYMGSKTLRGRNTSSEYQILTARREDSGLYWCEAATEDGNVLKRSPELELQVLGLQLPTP

[5] = target: Activin A (R&D Systems, Catalog number 338-AC-050 CF) (UniProt P08476); experiment: BIAcore SPR; fusion captured on anti-human Fc; activin A as analyte (2.5-0.15 nM); upper end of the printed range 1-2 pM; fusion captured on anti-human Fc, activin A tested 2.5-0.15 nM
[6] = target: Activin A (R&D Systems, Catalog number 338-AC-050 CF) (UniProt P08476); experiment: BIAcore SPR; fusion captured on anti-human Fc; activin A as analyte (2.5-0.15 nM); lower end of the printed range 1-2 pM; fusion captured on anti-human Fc, activin A tested 2.5-0.15 nM

monoFS315K(76,81,82)E-hFcLALA (Fc fusion), sequence (chain): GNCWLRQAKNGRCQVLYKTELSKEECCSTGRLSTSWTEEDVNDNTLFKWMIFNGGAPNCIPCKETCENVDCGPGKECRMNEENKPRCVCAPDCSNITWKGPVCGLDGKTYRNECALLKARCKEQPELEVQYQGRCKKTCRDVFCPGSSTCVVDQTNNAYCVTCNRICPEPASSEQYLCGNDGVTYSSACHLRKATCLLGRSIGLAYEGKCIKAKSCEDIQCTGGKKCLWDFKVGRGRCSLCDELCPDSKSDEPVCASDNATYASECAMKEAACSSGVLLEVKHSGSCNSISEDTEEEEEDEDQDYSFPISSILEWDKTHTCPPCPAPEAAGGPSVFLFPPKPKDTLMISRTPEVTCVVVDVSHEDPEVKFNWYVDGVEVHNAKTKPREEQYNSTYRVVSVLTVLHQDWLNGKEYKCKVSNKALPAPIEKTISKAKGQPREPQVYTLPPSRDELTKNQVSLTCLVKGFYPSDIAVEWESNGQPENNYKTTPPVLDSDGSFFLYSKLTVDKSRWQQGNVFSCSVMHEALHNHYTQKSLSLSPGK

For monoFS315wt-hFcLALA (Fc fusion), the Kd [1] was 2.89 pM and the Kd (FcRn receptor) was 12800 pM.

Work on “monoFS315K(76,81,82)E-hFcLALA (Fc fusion)” yielded a Kd [1] of under 4 pM and a Kd (FcRn receptor) of 40600 pM.

In the case of FS315ΔHBS-hFcLALA (Fc fusion), the Myostatin IC50 (nM), luciferase gene reporter assay (Smad3, A204 cells) [2] is reported as 0.4 nM.

FS315K(81,82,84)E-hFcLALA (Fc fusion) gave an Activin A IC50 (nM), luciferase gene reporter assay (Smad3, A204 cells) [3] of 1 nM and a Myostatin IC50 (nM), luciferase gene reporter assay (Smad3, A204 cells) [2] of 0.4 nM.

Substance “FS315WT-hFc (from UniProt P19883 30-344) (Fc fusion)” has a Kd [4] of 140 pM, a Kd [5] of 1 to 2 pM and a Kd [1] of 6 to 10 pM. It also gave an Activin A IC50 (nM), luciferase gene reporter assay (Smad3, A204 cells) [3] of 0.7 nM, a Myostatin IC50 (nM), luciferase gene reporter assay (Smad3, A204 cells) [2] of 0.4 nM and a Kd (FcRn receptor) of 114000 pM. For the same substance, the Kd [6] was 1 to 2 pM.
